Measurements: US20200308267A1 (Boehringer Ingelheim, published 2020)

target: T1, recombinant human VEGF165 (human, UniProt P15692-4 27-191, biotinylated (Sulfo-NHS-LC-Biotin) in the competition assays); experiment: Biacore, periplasmic extract, VEGF165 chip, two phase decay fit; design: unit not given here
T1 construct: also called hVEGF165; rhVEGF165
Experimental: Dissociation rates of inhibitory VHHs are analyzed on Biacore (Biacore T100 instrument, GE Healthcare). HBS-EP+ buffer is used as running buffer and experiments are performed at 25° C. […] After immobilization, surfaces are deactivated with 10 min injection of 1 M ethanolamine pH8.5. A reference surface is activated and deactivated with respectively EDC/NHS and ethanolamine. Periplasmic extracts of VHHs are injected at a 10-fold dilution in running buffer for 2 min at 45 μl/min and allowed to dissociate for 10 or 15 min. Between different samples, the surfaces are regenerated with regeneration buffer. Data are double referenced by subtraction of the curves on the reference channel and of a blank running buffer injection. […] is evaluated by fitting a two phase decay model in the Biacore T100 Evaluation software v2.0.1.

T1 sequence (P15692 other isoform, or with tags, fused parts or gaps limits assumed): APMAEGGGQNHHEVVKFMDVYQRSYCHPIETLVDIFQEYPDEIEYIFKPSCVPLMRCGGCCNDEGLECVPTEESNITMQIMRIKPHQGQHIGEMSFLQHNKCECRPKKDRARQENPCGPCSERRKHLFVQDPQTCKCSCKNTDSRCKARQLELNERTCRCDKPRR

| Binder | kd(fast) | kd(slow) |
| --- | --- | --- |
| VEGFBII23A03 (VHH, not shown: small tags and cut ends) VHH: EVQLVESGGGLVQPGDSLKLSCVASGRTFSSYSMGWFRQAQGKEREFVVAISSGGYIYDSVSLQGRFTISRDNTKNTVYLQTPSLKPEDTAVYYCAASRAYGSSRLRLADTYDYWGQGTQVTVSS | 0.015 | 3.2e-05 |
| VEGFBII23A08 (VHH, not shown: small tags and cut ends) VHH: EVQLVESGGGLVQTGDSLRLSCVASGRTFSSYSMGWFRQAQGKEREFVVAISNGGYKYDSVSLEGRFTISRDNTKNTVYLQINSLKPEDTAVYYCAASRAYGSSRLRLADTYDYWGQGTQVTVSS | 0.013 | 5e-05 |
| VEGFBII22E04 (VHH, not shown: small tags and cut ends) VHH: EVQLVESGGGLVQPGDSLKLSCVASGRTSSSYSMGWFRQAQGKEREFVVAISSGGSIYDSVSLQGRFTISRDNTKNTVYLQTPSLKPEDTAVYYCAASRAYASSRLRLADTYDYWGQGTQVTVSS | 0.018 | 0.00011 |
| VEGFBII27G07 (VHH, not shown: small tags and cut ends) VHH: EVQLVESGGGLVQPGDSLKLSCVASGRTSSSYSMGWFRQAQGQEREFVVAISSGGYIYDSVSLQGRFTISRDNTKNTVYLQTPSLKPEDTAVYYCAASRAYGSSRLRLADTYDYWGQGTQVTVSS | 0.013 | 3.8e-05 |
| VEGFBII23D11 (VHH, not shown: small tags and cut ends) VHH: EVQLVESGGGLVQPGDSLRLSCAFSGRTFSSYSMAWFRQAQGKEREFVVAISSGGFIYDAVSLEGRFTISRDNTKNTVYLQTPSLKPEDTAVYYCAASRAYGSSRLRLADTYDYWGQGTQVTVSS | 0.019 | 5.8e-05 |
| VEGFBII27D08 (VHH, not shown: small tags and cut ends) VHH: EVQLVESGGGLVQTGDSLRLSCAASGRTFSSYSMGWFRQAQGKEREFVVAISSGGYKYDSVSLEGRFTISRDNTQNTVYLQINSLKPEDTAVYYCAASRAYGSGRLRLADTYDYWGQGTQVTVSS | 0.024 | 8.1e-05 |
| VEGFBII22A11 (VHH, not shown: small tags and cut ends) VHH: EVQLVESGGGLVQPGDSLKLSCAFSGRTFSSYSMAWFRQAQGKEREFVVAISSGGFIYDAVSLEGRFTISRDNTKNTVYLQTPSLKPEDTAVYYCAASRAYGSSRLRLADTYDYWGQGTQVTVSS | 0.022 | 4.7e-05 |
| VEGFBII23E05 (VHH, not shown: small tags and cut ends) VHH: EVQLVESEGGLVQPGDSLKLSCVASGRTSSSYSMGWFRQAQGKEREFVVAISSGGYIYDSVSLQGRFTISRDNTKNTVYLQTPSLKPEDTAVYYCAASRAYGSSRLRLADTYDYWGQGTQVTVSS | 0.015 | 6.9e-05 |
| VEGFBII41B05 (VHH, not shown: small tags and cut ends) VHH: EVQLVESGGGLVQPGGSLRLSCAFSGRTFSSYSMGWFRQAQGKEREFVVAISSGGFIYDAVSLEGRFTISRDNTKNTVYLQTPSLKPEDTAVYYCAASRAYGSSRLRLADTYDYWGQGTQVTVSS | 0.019 | 0.00012 |
| VEGFBII30C09 (VHH, not shown: small tags and cut ends) VHH: EVQLVESGGGLVQPGDSLKLSCIASGRTSSSYSMGWFRQAQGQEREFVVAISSGGYIYDSVSLQGRFTISRDNTKNTVYLQTPSLKPEDTAVYYCAASRAYGSSRLRLADTYDYWGQGTQVTVSS | 0.015 | 7.6e-05 |
| VEGFBII40F02 (VHH, not shown: small tags and cut ends) VHH: EVQLVESGGGLVQPGDSLKLSCAFSGRTFSSYSMAWFRQAQGKEREFVVAISSGGFIYDAVSLEGRFTISRDNTKNTVYLQTPSLKPEGTAVYYCAASRAYGSSRLRLADTYDYWGQGTQVTVSS | 0.012 | 9.8e-05 |
